Blank lines part the entries; values can stand above or below the binder they belong to. Numbered stars: 1 amine (or outer) side, 2 acyl side, 3 side chain; on linkers, the order of the positions; unused ones are H or OH. Bridge positions count the residues as written; N and C are the ends. Square brackets hold non-standard residues; d marks the D form. Ends that are not written are not given here. CO = O=C([*:1])[*:2]; Nlys = NCCCCNCC(=O)O
Molecular target: MyD88, endogenous, in human cell lines (HeLa, U937, THP-1) (human, UniProt Q99836 1-296)
Sequence (Q99836 whole entry): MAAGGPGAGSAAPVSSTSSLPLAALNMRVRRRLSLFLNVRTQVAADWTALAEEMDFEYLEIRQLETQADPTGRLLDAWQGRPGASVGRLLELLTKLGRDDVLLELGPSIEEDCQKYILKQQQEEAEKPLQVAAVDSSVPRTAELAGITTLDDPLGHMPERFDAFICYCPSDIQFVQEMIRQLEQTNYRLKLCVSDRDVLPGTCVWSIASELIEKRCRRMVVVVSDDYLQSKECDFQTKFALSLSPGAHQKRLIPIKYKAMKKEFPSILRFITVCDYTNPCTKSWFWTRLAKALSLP
Experiment: cell-based or functional assay

Percent p65 nuclear translocation in HeLa cells, IL-1β: 91%
Binder: PTDLVRG [scrambled version of the linear MyD88 inhibitor peptide (PTDLVRG)]

Percent p65 nuclear translocation in HeLa cells, IL-1β: 27%
B1: backbone cyclic peptide 4×4MyDI (Formula IV, m=4, n=4, Z=Trp) (peptide)
peptide: W[Nlys]RDVL[Nlys]GT
modifications: bridge 2-7 via CO; also: backbone cyclization: two amine-terminated 4-methylene arms on Gly2 and Gly7 joined by a urea bond

Percent p65 nuclear translocation in HeLa cells, IL-1β: 20%
Binder: RDVLPGT [MyD88 inhibitor linear peptide RDVLPGT]

Source: patent US20190185516A1 (YISSUM RESEARCH DEVELOPMENT COMPANY OF THE HEBREW …, published 2019)
